Assay results published in US20200362021A1 (PHANES THERAPEUTICS, published 2020).
Positions count from the first letter of the chain named.

T1: alanine scanning peptide 13A (KGPMPA)
T1 peptide: KGPMPA

T2: alanine scanning peptide 10A (KGAMPF)
T2 peptide: KGAMPF

T3: apelin peptide 2-13 (RPRLSHKGPMPF)
T3 peptide: RPRLSHKGPMPF

T4: apelin peptide 4-13 (RLSHKGPMPF)
T4 peptide: RLSHKGPMPF

T5: 10-13
T5 construct: also called apelin peptide 10-13 (PMPF)
T5 peptide: PMPF

T6: 9-13
T6 construct: also called apelin peptide 9-13 (GPMPF)
T6 peptide: GPMPF

T7: apelin peptide 7-13 (HKGPMPF)
T7 peptide: HKGPMPF

T8: apelin peptide 6-13 (SHKGPMPF)
T8 peptide: SHKGPMPF

T9: apelin peptide 1-12 (QRPRLSHKGPMP)
T9 peptide: QRPRLSHKGPMP

T10: apelin peptide 3-13 (PRLSHKGPMPF)
T10 peptide: PRLSHKGPMPF

T11: apelin peptide 8-13 (KGPMPF)
T11 peptide: KGPMPF

T12: apelin peptide 5-13 (LSHKGPMPF)
T12 peptide: LSHKGPMPF

T13: pyro-apelin 13 (N-terminal pyroglutamate)
T13 peptide: ERPRLSHKGPMPF

B1: anti-apelin mAb C24 (antibody, V domains shown)
VH: QSLEESGGRLVTPGTPLTLTCTVSGIDLYTNRVSWVRQAPGKGLDWIGSIGSSPWYASWAQGRFTISKTSTTVNLKITSSTTEDTATYFCAKGGYRPGGSIWGPGTLVTVSS
VL: QVLTQSASPVSAAVGDSVTIACQSSQSVYDNNDLGWYQQKPGQTPKRLIYLASSLDSGVPSRFSGSGSGTQFTLTISDLECDDAATYYCAGGYSGDIYTFGGGTEVVVK
notes: recombinant rabbit IgG made in HEK293 cells
B2: anti-apelin mAb C25 (antibody, V domains shown)
VH: B1 VH with R9G, V33M, D45E, Y56F, Q61L, S80P, G99A, I101V
VL: QVLTQTESPVSAPVGGTVTIACQSSQSVYDNNDLAWYQQKAGQTPKRLIFLASSLDSGVPSRFKGSGSGTEFTLTISDLECDDAATYYCAGGYNGDIYTFGGGTEVVVK
notes: as for B1
B3: humanized anti-apelin mAb A31 (human IgG1 backbone) (antibody, V domains shown)
VH: QSLEESGGGLVQPGGSLRLSCAVSGIDLYSNRMSWVRQAPGKGLEWVGSIGSSPWYASWAQGRFTISRDNSNTVYLQMNSLTAEDTATYFCAKGGYRPGASVWGQGTLVTVSS
VL: DIQLTQSPSSLSASVGDRVTITCQSSQSIYDNNDLAWYQQKPGKTPKRLIYLASSLDSGVPSRFSGSGSGTDFTLTISSLQPEDVATYYCAGGYSGDIYTFGGGTKVEIK
notes: humanized from C8; tested as HEK293 supernatant
B4: humanized anti-apelin mAb A31 (human IgG4 backbone) (antibody, V domains shown)
VH: B3 VH
VL: B3 VL

Legend:
[1] = molecular target: alanine scanning peptide 9A (KAPMPF); assay: competition ELISA, captured mAb, peptide competes with biotin-apelin-13, A405
Protocol: (§1) Goat anti-rabbit IgG was immobilized on an ELISA plate. […] Several competition peptides were used as controls.
(§2) For the peptide competition assay, goat anti-rabbit IgG in carbonate coating buffer was coated on high binding ELISA plates at 1 μg/ml overnight. […] After incubation at room temperature for 60 minutes, the plates were washed and then streptavidin-conjugated to alkaline phosphatase was added, and the binding was detected by adding PNPP substrate and reading absorbance of ELISA plates at 405 nm. Each competition peptide or control sample was assayed in duplicate for a given mAb. […] “No comp:” no competition peptide was added; “No Ab, No Comp:” neither competition peptide nor anti-apelin mAb was added.

[2] = molecular target: T1, alanine scanning peptide 13A (KGPMPA); assay: as above
Protocol: as §1, §2

[3] = molecular target: T2, alanine scanning peptide 10A (KGAMPF); assay: as above
Protocol: as §1, §2

[4] = molecular target: T3, apelin peptide 2-13 (RPRLSHKGPMPF); assay: as above
Protocol: as §1, §2

[5] = molecular target: alanine scanning peptide 8A (AGPMPF); assay: as above
Protocol: as §1, §2

[6] = molecular target: T14, biotin-apelin-13 (biotin-…) (N-terminal biotin); assay: SPR (Biacore), biotin-apelin-13 on streptavidin CM5 chip, mAb at 12.5-100 nM
T14 construct: also called Biotin-APL13
Protocol: Anti-apelin mAbs at four different concentrations (12.5 nM, 25 nM, 50 nM and 100 nM) were captured on the chip surface. The on- and off-rate for antibody-antigen binding were measured, curve fitted and calculated.

[7] = molecular target: T4, apelin peptide 4-13 (RLSHKGPMPF); assay: competition ELISA, captured mAb, peptide competes with biotin-apelin-13, A405
Protocol: (§3) Goat-anti-rabbit IgG was immobilized on an ELISA plate.
(§4) The antibody binding sites for anti-apelin mAbs C8, C24, and C25 were mapped using an ELISA-based peptide competition assay. […] Each of the competition peptides (Table 7) was assessed for its ability to inhibit biotin-apelin-13 binding to the mAb. An inhibition signal reflects the ability of the competition peptide to bind to the mAb in solution.
as §2

10-13 = molecular target: T5, 10-13; assay: as above
Protocol: as §3, §4, §2

9-13 = molecular target: T6, 9-13; assay: as above
Protocol: as §3, §4, §2

[8] = molecular target: T7, apelin peptide 7-13 (HKGPMPF); assay: as above
Protocol: as §3, §4, §2

[9] = molecular target: T8, apelin peptide 6-13 (SHKGPMPF); assay: as above
Protocol: as §3, §4, §2

[10] = molecular target: T9, apelin peptide 1-12 (QRPRLSHKGPMP); assay: as above
Protocol: as §3, §4, §2

[11] = molecular target: T10, apelin peptide 3-13 (PRLSHKGPMPF); assay: as above
Protocol: as §3, §4, §2

[12] = molecular target: T11, apelin peptide 8-13 (KGPMPF); assay: as above
Protocol: as §3, §4, §2

[13] = molecular target: T12, apelin peptide 5-13 (LSHKGPMPF); assay: as above
Protocol: as §3, §4, §2

pyro-apelin 13 = molecular target: T13, pyro-apelin 13; assay: cell-based or functional assay
[14] = molecular target: apelin 13 (competition peptide 1-13, …); assay: cell-based or functional assay
[15] = molecular target: T14, biotin-apelin-13 (biotin-…); assay: SPR (Biacore) with biotin-apelin-13, humanized IgG1 mAb in HEK293 supernatant
Source text: The rabbit anti-apelin mAb C8 was humanized to reduce the potential of immunogenicity when used in human patients. The sequences of the variable regions of the heavy and light chains (VH and VL) were compared with the human antibody sequences in the Protein Data Bank (PDB) database and a homology model was built by applying SWISS-modeling. The CDRs in both the heavy and light chains of the rabbit mAb were grafted into human frameworks that have the highest possibility of maintaining the proper structure likely required for antigen binding. Backmutations from human residue to rabbit residue were designed when necessary. The sequences of the humanized VH and VL regions are shown in Table 11 and Table 12, respectively. The humanized VH and VL regions were fused to human IgG1 heavy chain and kappa light chain constant regions, respectively, to generate humanized mAbs. Constructs corresponding to the mAb sequences were used for transient transfection in HEK 293 cells and the supernatants were analyzed for the affinity of each humanized mAb for apelin.

[16] = molecular target: T14, biotin-apelin-13 (biotin-…); assay: ELISA, increasing concentrations of IgG4 mAb immobilized on plate, biotin-apelin-13 added, streptavidin-AP detection
Source text: Two additional humanized mAbs (B24 and B25) were generated with sequence modifications on A31. […] The binding was then detected by adding PNPP substrate and reading absorbance of the ELISA plates at 405 nm.

Row | Binder | binding result [1] | binding result [2] | binding result [3] | binding result [4] | binding result [5] | Kd [6] | binding result [7] | binding result (10-13) | binding result (9-13) | binding result [8] | binding result [9] | binding result [10] | binding result [11] | binding result [12] | binding result [13] | IC50 (pyro-apelin 13) | IC50 [14] | Kd [15] | EC50 [16]
1 | B1 | binds | no binding (tested: peptide concentration not stated) | binds | binds | binds | 0.000401 nM | binds | binds | binds | binds | binds | no binding (tested: peptide concentration not stated) | binds | binds | binds | – | – | – | –
2 | B2 | binds | no binding (tested: peptide concentration not stated) | binds | binds | binds | 0.0508 nM | binds | binds | binds | binds | binds | no binding (tested: peptide concentration not stated) | binds | binds | binds | – | – | – | –
3 | B3 | – | – | – | – | – | – | – | – | – | – | – | – | – | – | – | 19.9 nM | 25 nM | 0.148 pM | –
4 | B4 | – | – | – | – | – | – | – | – | – | – | – | – | – | – | – | – | – | – | 0.21 nM
